Data as given in patent US20160108118A1 (METABOLIC ENGINEERING LABORATORIES, published 2016).
Numbering of substitutions follows the chain as printed.

T1: Human CXCL10-His (human, UniProt P02778 22-98)
T1 construct: also called hCXCL10; recombinant human CXCL10 protein; not shown: His tag (named CXCL10-His)
T1 sequence (looked up): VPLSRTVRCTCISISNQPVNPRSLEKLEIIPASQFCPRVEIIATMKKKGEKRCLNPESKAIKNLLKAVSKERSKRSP

B1: scFv-phage clone 10E (scFv)
scFv: QVQLVQSGGGVVQPGRSLRLSCAASGFTFNSYGMHWVRQAPGKGPEWVAVISYDGNSKYYADSVKGRFTISRDNSKTTLYLQMNSLRSEDTAVYYCARDSGSYLDWYFDLWGRGTLVTVSSGLGGLGGGGSGGGGSGGSSGVGSQFVLTQPPSVSGAPGQRVTISCTGSRSNFGAGHDVHWYQQLPGTAPKLLIYGNNNRPSGVPDRFSGSKSGTSASLAITGLQAEDEADYYCQSYDSRLGVVFGGGTKLTVL
notes: also called E10 scFv
B2: anti-CXCL10 antibody 9E (whole IgG) (antibody, V domains shown)
VH: QVQLVESGGGVVQPGRSLRLSCAASGFTFSSYGMHWVRQAPGKGLEWVAVISYDGNNKYYVDSVKGRFTISRDNSKNTLYLQMNSLRSEDTAVYYCARDSGSYLDWYFDLWGRGTLVTVSS
VL: QPPSVSVAPGKTARIACGGGNIGDKSVHWYQQKPGQAPVLVIFYDSDRPSGIPKRLSGSNSGNTATLTISRVEAGDEGDYYCQVWDSSSDRPVFGGGTKLTVLG
notes: Whole-form IgG
B3: anti-CXCL10 antibody 10E (whole IgG) (antibody, V domains shown)
VH: B2 VH with E6Q, S30N, L45P, N57S, V61A, N77T
VL: QPPSVSGAPGQRVTISCTGSRSNFGAGHDVHWYQQLPGTAPKLLIYGNNNRPSGVPDRFSGSKSGTSASLAITGLQAEDEADYYCQSYDSRLGVVFGGGTKLTVLG
notes: also called E10
B4: scFv-phage clone 10D (scFv)
scFv: QVQLVQSGGGVVQPGRSLRLSCAASGFTFSSYGMHWVRQAPGKGLEWVAVISYDGSNKYYADSVKGRFTISRDNSKNTLYLQMNSLRSEDTAVYYCARDKRAAFDIWGQGKMVTVSSGLGGLGGGGSGGGGSGGSSGVGSSYELTQAPSLSVSPGQTANIICSGDNLRTKYVSWYQQKPGQSPLLVIYQDTRRPSGIPARFSGSNSGNTATLTISGTQTERESTYYCMTWDVDTTSMIFGGGTKLTVL
B5: anti-CXCL10 antibody 12D (whole IgG) (antibody, V domains shown)
VH: QVQLVQSGGGVVQPGRSLRLSCVASAFTFSRYGMHWVRQAPGKGLEWVALISYDGSSEYYADSVKGRFNISRDNSKNTVYLQMNSLRAEDTAVYYCVKDGLAAKLGHWGQGTLVTVSS
VL: QAPSLSVSPGQTANIICSGDNLRTKYVSWYQQKPGQSPLLVIYQDTRRPSGIPARFSGSNSGNTATLTISGTQTERESTYYCMTWDVDTTSMIFGGGTKLTVLG
notes: Whole-form IgG
B6: scFv-phage clone 9E (scFv)
chain: QVQLVESGGGVVQPGRSLRLSCAASGFTFSSYGMHWVRQAPGKGLEWVAVISYDGNNKYYVDSVKGRFTISRDNSKNTLYLQMNSLRSEDTAVYYCARDSGSYLDWYFDLWGRGTLVTVSSQPPSVSVAPGKTARIACGGGNIGDKSVHWYQQKPGQAPVLVIFYDSDRPSGIPKRLSGSNSGNTATLTISRVEAGDEGDYYCQVWDSSSDRPVFGGGTKLTVLG
B7: scFv-phage clone 12D (scFv)
chain: QVQLVQSGGGVVQPGRSLRLSCVASAFTFSRYGMHWVRQAPGKGLEWVALISYDGSSEYYADSVKGRFNISRDNSKNTVYLQMNSLRAEDTAVYYCVKDGLAAKLGHWGQGTLVTVSSQAPSLSVSPGQTANIICSGDNLRTKYVSWYQQKPGQSPLLVIYQDTRRPSGIPARFSGSNSGNTATLTISGTQTERESTYYCMTWDVDTTSMIFGGGTKLTVLG

Experiments:
[1] = target: T2, α-myc (anti-myc antibody coated as second antigen); assay: phage ELISA
T2 construct: Coated at 100 ng per well beside CXCL10 in the phage ELISA; in effect a control of scFv display; also called a-myc

[2] = target: T3, His (control coat of Table 2); assay: phage ELISA
T3 construct: Not explained in the text

Human CXCL10-His [3] = target: T1, Human CXCL10-His; assay: phage ELISA
Human CXCL10-His [4] = target: T1, Human CXCL10-His; assay: phage ELISA, CXCL10/a-myc
Protocol: Two types of antigens such as CXCL10 and α-myc were put into a 96-well immunoplate at 100 ng per well and coated with a coating buffer at 4° C. for 16 hours, and wells were blocked with skim milk (4%) dissolved in PBS. Each well was washed with 0.2 ml of PBS-Tween20 (0.05%), and the monoclonal scFv-phages obtained by the third panning (each 100 scFv-phage) were added at 100 μl per well, and allowed to be reacted at room temperature for 2 hours. Each well was washed again with 0.2 ml of PBS-Tween20 (0.05%) four times, and a secondary antibody, anti-M13-HRP, was diluted at 1/2000 and allowed to be reacted at room temperature for 1 hour. Each well was washed with 0.2 ml of PBS-Tween20 (0.05%) and allowed to develop a color to measure an absorbance at 490 nm.

Human CXCL10-His [5] = target: T1, Human CXCL10-His; assay: ELISA, IgG titrated from 50 nM on coated CXCL10
Protocol: Specifically, ELISA was carried out by coating a recombinant human CXCL10 protein with a coating buffer at 100 ng per well in a 96-well immunoplate at 4° C. for 16 hours, and a reaction in each well was blocked with skim milk (4%) dissolved in PBS. 0.2 ml of PBS-Tween20 (0.05%) was added to wash each well, monoclonal antibodies were sequentially diluted from 50 nM by ½, added at 100 μl each to an antigen-coated plate, and allowed to be reacted at room temperature for 2 hours. 0.2 ml of PBS-Tween20 (0.05%) was added again to wash each well three times, and a secondary antibody, anti-human Fc-HRP, was diluted at 1:4000 and allowed to be reacted at room temperature for 50 minutes. The plate was washed with 0.2 ml of PBS-Tween20 (0.05%), and a substrate solution prepared by adding an OPD table to a PC buffer was added to the plate at 100 μl per well to allow color development for 5 minutes, followed by measuring an absorbance at 490 nm using a spectrophotometer. The ELISA result was analyzed using a Graphpad prism ver. 4 software (CA 92037: Graphpad Software Inc., USA).

Binder	OD490 [1]	OD490 [2]	OD490 (Human CXCL10-His [3])	Ratio (Human CXCL10-His [4])	Kd (Human CXCL10-His [5])
B1	0.307	0.051	3.05	9.95	–
B2	–	–	–	–	6.1 pM
B3	–	–	–	–	7 pM
B4	–	0.178	2.85	0.945	–
B5	–	–	–	–	4.7 pM
B6	–	–	2.96	1.48	–
B7	–	–	3.02	3.4	–
